Patent US20220259306A1 (SHANGHAI HYAMAB BIOTECH, published 2022)
Positions count from the first letter of the chain named.

Experiments:
NKG2E protein = biological target: T1, NKG2E protein (human, UniProt Q07444 94-240, limits assumed); test: ELISA on NKG2E protein
T1 construct: construct and source not described

[1] = biological target: T2, hFc-tagged NKG2A/CD94 protein (NKG2A/CD94-hFc), immunogen A (human, UniProt P26715 94-233; Q13241 32-179, biotin-labeled in the Octet assays (site not stated)); test: BLI (Octet red96), biotinylated immunogen A on streptavidin sensor, antibody in solution
T2 construct: Heterodimer of the extracellular domains of NKG2A and CD94, each with hFc; also called human-derived NKG2A/CD94-ECD-Fc; hNKG2A/CD94-ECD-Fc; not shown: human IgG Fc fragment (hFc) of the pCpC vector
T2 sequence (P26715 94-233 limits assumed, chain 1 of 2): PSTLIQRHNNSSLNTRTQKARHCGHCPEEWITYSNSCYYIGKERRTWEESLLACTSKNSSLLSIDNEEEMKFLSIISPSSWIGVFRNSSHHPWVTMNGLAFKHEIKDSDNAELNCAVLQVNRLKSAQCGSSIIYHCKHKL
T2 sequence (Q13241 32-179 limits assumed, chain 2 of 2): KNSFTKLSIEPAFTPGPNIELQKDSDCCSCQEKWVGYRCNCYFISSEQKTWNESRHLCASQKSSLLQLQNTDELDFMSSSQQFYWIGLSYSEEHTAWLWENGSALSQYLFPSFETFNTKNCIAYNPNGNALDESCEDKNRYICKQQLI
From the text: (§1) An Octet red96 instrument (purchased from Fortiebio) was used to determine the affinity constant. The specific operations and methods are based on the instrument manual and the detailed methods provided by the manufacturer. Specifically: using a streptavidin sensor (SA sensor, purchased from Fortiebio) for affinity determination.

[2] = biological target: T3, monkey NKG2A/CD94 on the cell surface (CHOk1-cNKG2A/CD94 stable cell line) (macaque, UniProt Q9MZJ3 1-233; Q9MZK9 1-179); test: FACS on CHOK1-cNKG2A/CD94 cells, Alexa 488 secondary antibody
T3 construct: also called macaque NKG2A; cyno NKG2A
T3 sequence (Q9MZJ3 other isoform, or with tags, fused parts or gaps, chain 1 of 2): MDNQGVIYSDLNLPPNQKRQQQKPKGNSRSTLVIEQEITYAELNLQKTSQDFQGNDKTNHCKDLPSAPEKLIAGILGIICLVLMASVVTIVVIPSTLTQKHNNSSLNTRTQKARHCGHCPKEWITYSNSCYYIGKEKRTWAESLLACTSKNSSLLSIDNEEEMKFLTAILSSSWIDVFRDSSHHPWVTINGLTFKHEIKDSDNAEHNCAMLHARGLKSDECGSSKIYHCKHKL
T3 sequence (Q9MZK9 whole entry, chain 2 of 2): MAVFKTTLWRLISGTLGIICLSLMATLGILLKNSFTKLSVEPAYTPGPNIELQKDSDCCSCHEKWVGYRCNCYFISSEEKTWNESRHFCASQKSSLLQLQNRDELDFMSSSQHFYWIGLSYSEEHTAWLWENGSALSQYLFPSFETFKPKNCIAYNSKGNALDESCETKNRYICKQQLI
From the text: The pCHO1.0 plasmid containing the nucleotide sequence encoding the full-length amino acid sequence of human-derived NKG2A/CD94 as described in step (2) of Example 1 was transfected into the CHOK1 cell line to obtain a CHOK1 stable cell line containing human NKG2A and CD94 (here referred to as CHOk1-hNKG2A/CD94 stable cell line), the pCHO1.0 plasmid carrying the monkey-derived NKG2A and CD94 full-length genes (the preparation method is the same as the preparation method of pCpC vector with human IgG Fc fragment (hFc) in step (1) “Preparation of immunogen A” in Example 1. The CHOK1 cell line was transfected to obtain the CHOK1 stable cell line containing monkey NKG2A/CD94 (here referred to as the CHOk1-cNKG2A/CD94 stable cell line), the CHOK1-hNKG2C/CD94 stable cell line was prepared with the same method. CHOk1-hNKG2A/CD94 stable cell line, CHOk1-cNKG2A/CD94 stable cell line and CHOK1-hNKG2C/CD94 stable cell line were expanded to 90% confluence in T-75 cell culture flasks, aspirating the medium, washed twice with PBS buffer (purchased from Invitrogen), then treating and collecting the cells with an enzyme-free cell dissociation solution (Versene solution, purchased from Life technology). Washing the cells twice with PBS buffer, after counting the cells, diluting the cells with PBS buffer to 2×10⁶ cells per milliliter, adding 1% goat serum blocking solution, the percentage was the mass percentage, incubated on ice for 30 minutes, and then washed twice with PBS buffer by centrifugation. Suspending the collected cells with FACS buffer (PBS+1%BSA, the percentage was the mass percentage) to 2×10⁶ cells/mL, adding it to 96-wells FACS reaction plate at 100 microliters per well, and adding 100 microliters per well of the purified NKG2A antibody test sample obtained in Example 2, incubated on ice for 2 hours. Washed twice with FACS buffer by centrifugation, and adding 100 microliters of fluorescent (Alexa 488) labeled secondary antibody (purchased from Invitrogen) per well, incubated on ice for 1 hour. Washed 3 times by centrifugation with FACS buffer, then suspending the cells with 100 μl FACS buffer, and using FACS (FACS Calibur, purchased from BD) to detect and analyze the results.

[3] = biological target: T3, monkey NKG2A/CD94 on the cell surface …; test: FACS on CHOK1-cNKG2A/CD94 cells
[4] = biological target: T3, monkey NKG2A/CD94 on the cell surface …; test: FACS on CHOK1-cNKG2A/CD94 cells; remark: listed apart in the source
[5] = biological target: T3, monkey NKG2A/CD94 on the cell surface …; test: FACS of scFv on cells with macaque NKG2A (cell line not given)
[6] = biological target: T2, hFc-tagged NKG2A/CD94 protein …; test: ELISA of scFv supernatant, selection threshold
[7] = biological target: T2, hFc-tagged NKG2A/CD94 protein …; test: BLI (Octet), biotinylated HNKG2A/CD94-ECD-Fc on streptavidin sensor, method of Example 5B
From the text: as §1

[8] = biological target: T4, human NKG2A/CD94 on the cell surface (CHOk1-hNKG2A/CD94 stable cell line) (human, UniProt P26715 1-233; Q13241 1-179); test: FACS on CHOK1-hNKG2A/CD94 cells, Alexa 488 secondary antibody
T4 construct: whole, on cells; 93 and 94 are nucleic acids; also called human NKG2A on the cell surface; NKG2A/CD94 cells

[9] = biological target: T4, human NKG2A/CD94 on the cell surface …; test: FACS blocking assay: HLA-E-PE binding to CHOk1-hNKG2A/CD94 cells in the presence of the antibody
[10] = biological target: T4, human NKG2A/CD94 on the cell surface …; test: FACS blocking assay: HLA-E binding to NKG2A/CD94 cells in the presence of the antibody

T1 sequence (Q07444 94-240 limits assumed): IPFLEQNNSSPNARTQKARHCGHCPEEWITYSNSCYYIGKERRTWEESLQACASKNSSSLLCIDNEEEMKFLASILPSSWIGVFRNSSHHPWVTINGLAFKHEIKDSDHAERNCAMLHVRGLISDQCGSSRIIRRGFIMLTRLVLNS

B1: Mab031 (antibody, V domains shown)
VH: EVQLQQSVAELVRPGASVRLSCTGSGFNIQNTYIHWVKQRPEQGLEWIGRIDPANGDTKYAPKFQGKATITADTSSNTAYLQLSSLTSEDTAIYYCTRYGNYLYYYSLDYWGQGTSVTVSS
VL: DIVMTQAAPSVPVTPGESVSISCRSSKSLLHSNGNTYLYWFLQRPGQSPQLLIYRMSNLASGVPDRFSGSGSGTAFTLRISRVEAEDMGVYYCMQHLEYPYTFGGGTKLEIK
With B1 the binding result (NKG2E protein) was “no binding (tested: 66.67 nM)”, the Kd [1] was 18.1 pM and the koff [1] was 1.84e-05 s⁻¹. The kon [1] was 1.02e+06 M⁻¹ s⁻¹ and the “EC50 (read off the curve)” value [2] was ~1000 pM.

B2: Mab033 (antibody, V domains shown)
VH: EVQLQQSVAEFVRPGASVRLSCTASGFNIENTYIHWLKQRPEQGLEWIGRIDPANGDTQYDPKFQGKATLTAATSSNTAYLQLSGLTSEDTAIYYCTRYGDYLFYYSLKYWGQGTSVTVSS
VL: B1 VL with P12S, M88V, Y99S
In the case of B2, the binding result (NKG2E protein) is reported as “no binding (tested: 66.67 nM)”, the Kd [1] is reported as 20.2 pM and the koff [1] is reported as 2.26e-05 s⁻¹. The kon [1] was 1.12e+06 M⁻¹ s⁻¹ and the “EC50 (read off the curve)” value [2] was ~1000 pM.

B3: Mpb416 (antibody, V domains shown)
VH: QVQLQQSVAELVRPGASVKLSCTASGFNIQNTYIHWVKQRPEQGLEWIGKIDPANGDTKYAPTFQGKATITADTSSNTAYLQLSSLTPEDTAIYYCARYRDYLFYYALGYWGQGTSVTVSS
VL: B1 VL with A7S, M88V
notes: also called 12G8 (as full antibody)
For B3, the binding result (NKG2E protein) was “no binding (tested: 66.67 nM)”, the Kd [1] was 10.4 pM and the koff [1] was 1.04e-05 s⁻¹. For the same binder, the kon [1] was 995000 M⁻¹ s⁻¹ and the “EC50 (read off the curve)” value [2] was ~700 pM.

B4: M15 (antibody, V domains shown)
VH: B3 VH with G56A
VL: B1 VL with A7S, G34A, M88V
notes: parent of the humanized M15-1 to M15-15; also called M15 antibody; Mpb416-M15
In the case of B4, the “EC50 (read off the curve)” value [3] is reported as ~800 pM and the “EC50 (read off the curve)” value [4] is reported as ~800 pM.

B5: Mab032 (antibody, V domains shown)
VH: B1 VH with Q30E, I34M, V37L, N55D, K59Q, A72T, T97A, Y104F, L108M
VL: B1 VL with G73A, M88V, V90I
B5 was tested, and the binding result (NKG2E protein) was “no binding (tested: 66.67 nM)”, the Kd [1] was 23.9 pM and the koff [1] was 2.45e-05 s⁻¹. The kon [1] was 1.03e+06 M⁻¹ s⁻¹ and the “EC50 (read off the curve)” value [2] was ~1000 pM.

B6: 2F10-2 (scFv clone) (scFv, V domains shown)
VH: QVQLQQSVAELVRPGASVKLSCTASGFNIKNAYVHWVKQRPEQGLEWIGQIDPANGNTKYAPKFQAKATITADTSSNTVYLQLSSLTSEDTAVYYCARSYLGGQYYFDYSGQGTTLTVSS
VL: DILMTQSPSSMYASLGERVTITCKASQDINSYLSWFQQKPGKSPKTLIYRANRLVDGVPSRFSGSGSGQDYSLTISSLEYEDMGIYYCLQYDEFPLTFGAGTKLEIK
notes: scFv
B6 was tested, and the binding result [5] was “binds” and the “OD450 nm reading ratio NKG2A/CD94-ECD-Fc / NKG2C/CD94-ECD-Fc” value [6] was 4.

B7: Tab1 (Z270) (antibody, V domains shown)
VH: EVQLVESGGGLVKPGGSLRLSCAASGFTFSSHSMNWVRQAPGKGLEWVSAISSSSSYIYYADSVKGRFTISRDNAKNSLYLQMNSLRAEDTAVYYCAREEWGLPFDYWGQGTLVTVSS
VL: AIQLTQSPSSLSASVGDRVTITCRASQGISSALAWYQQKPGKAPKLLIYDASSLKSGVPSRFSGSGSGTDFTLTISSLQPEDFATYYCQQFNSYPLTFGQGTRLEIK
B7 was tested, and the Kd [1] was 142 pM, the koff [1] was 0.000189 s⁻¹ and the kon [1] was 1.33e+06 M⁻¹ s⁻¹. The Kd [7] was 182 pM, the koff [7] was 0.00162 s⁻¹ and the kon [7] was 8.87e+06 M⁻¹ s⁻¹. The “EC50 (read off the curve)” value [2] was ~2000 pM, the “EC50 (read off the curve)” value [8] was ~400 pM and the “IC50 (read off the curve)” value [9] was ~700 pM. For the same binder, the “IC50 (read off the curve)” value [10] was ~1000 pM.

B8: M15-5 (antibody, V domains shown)
VH: QVQLVQSGAEVKKPGASVKVSCKASGFNIQNTYIHWVKQAPGQGLEWIGKIDPANADTKYAPTFQGRATITADTSTNTAYLELSSLRSEDTAVYYCARYRDYLFYYALGYWGQGTTVTVSS
VL: DIVMTQSPLSLPVTPGEPASISCRSSKSLLHSNANTYLYWYLQKPGQSPQLLIYRMSNLASGVPDRFSGSGSGTDFTLKISRVEAEDVGVYYCMQHLEYPYTFGQGTKLEIK
notes: Humanized; also called humanized NKG2A antibody
In the case of B8, the “EC50 (read off the curve)” value [3] is reported as ~1000 pM, the Kd [7] is reported as < 10.4 pM and the koff [7] is reported as < 1e-05 s⁻¹. The kon [7] was 958000 M⁻¹ s⁻¹.
